Experimental data as given in the supplement of paper PMC12764529.
± gives the half width of the 95% confidence interval.

Tests used:
[1] = folding stability dG unfold from chymotrypsin proteolysis; higher = more stable
Procedure: (§1)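 Folding stability of de novo designed mini-proteins (<80 aa, no Cys; designed by TrROS, TrMRF, ProteinMPNN and the joint model) was measured by cDNA display proteolysis with trypsin and chymotrypsin. Each protease was used at 11 concentrations in a threefold dilution series plus a no-protease condition. K50 was inferred by Bayesian fitting of sequencing counts, and dG unfold was derived against a sequence-predicted unfolded-state K50 (Tsuboyama et al. method). Sequences shown include variable-length N-terminal GS-type padding (SAGGSAGG...) inside a display construct carrying a PA tag. Rows were kept only if the AF2 dimer inter-PAE was >15, to exclude likely homo-oligomers.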

[2] = folding stability dG unfold (combined trypsin and chymotrypsin); higher = more stable
Procedure: as §1

| Sequence | folding stability dG unfold [1] [kcal/mol] | folding stability dG unfold [2] [kcal/mol] |
| --- | --- | --- |
| SAGGSAMKTAEVVLDVPEEELEAARAAGEGLSAEVRARMEALAAEVRAAGYDEVVLRLRPSSVPLPSAGGSA [r15_304_JUSTAS] | -0.0294 ± 0.24 | < -1 |
| SAGGSAGGSAKKLKIPNPDGKTYEMKVEDVDPENNNVMIRNPGNGEPFHFKKSDAKRIAEELSAGGSAGGSA [r18_161_TrROS] | -0.626 ± 0.44 | < -1 |
| SAGKSKTITLEIYNKETNIIIKIEIEINGDEVTIKVYAFNKDGKLIAKAEIKFNKKTKKLEIKIEIKKLSAG [r5_747_TrROS_Hall] | 5.07 ± 0.33 | > 6 |
| SAGGENVIIRYKDPDRFKEAIQDAPGIPPENVKTKPNPNGWNEVTFPNPEALDRLKKAGYPVDKIEPSAGGS [r16_381_TrROS] | -0.351 ± 0.38 | < -1 |
| SAGGGPPGVVKPFTEETTFTVPLAGGPPVEVKTTTTTYTSADPAKRSLVTTTTTSPQNATTTTVTPLSSAGG [r13_654_JUSTAS] | -0.2 ± 0.23 | < -1 |
| SAGEVETRTLPDGSVEIRRVERDPNSDQEVETRERVTFDPATGTARVPREVYRGDRWETEERVIALPASAGG [r19_289_JUSTAS] | 0.456 ± 0.16 | -0.38 ± 0.27 |
| SAGGSAGGSAGGKKININVPAEEMTEEEIKKLIKNLPPDMPIEIEIQPVPPPPPPPPGDKSAGGSAGGSAGG [r7_979_TrROS] | -0.851 ± 0.63 | < -1 |
| SAGGSAGGSAGMLKTIVIKELTPEAKKALLENPDLPEDAEVPTLVEELTVPVKRTPKGLVSAGGSAGGSAGG [r17_194_JUSTAS] | -0.0656 ± 0.077 | -0.398 ± 0.13 |
| SAGGMIRRITIYITDPGPSAPATTTTITVDVPPDRPDVPDEEVAQRVAESIAPKTGATATVEKIEEVSAGGS [r8_101_JUSTAS] | 0.406 ± 0.071 | -0.159 ± 0.15 |
| SAGGMKIIKELYDKLPPEVKYFSVPFHYPTGKVEPVKPSPTLSMFEPFNPETGEVDRFVVYRDKIEPLSAGG [r13_803_TrMRF] | 0.0804 ± 0.18 | -0.229 ± 0.24 |
| SAGGSAGGSAGGTIKKVSDGTIVIPVPNPHQAEKFADTLMEKNNGRDVKIKVFPPEDFGPSAGGSAGGSAGG [r7_645_TrROS] | -0.264 ± 0.1 | < -1 |
| SDPLGTPVPLTYRVLLTFPGVSRPFLGPGGVVRSVSVNPTVLVPGPANSYPAVRELAEPLGLSVSVTPLASA [r9_1209_TrMRF] | -0.289 ± 0.21 | -0.871 ± 0.23 |
| SAGGKPGEPVKIKMRGPDGQPMTFPFYAPEPVKIKMNNPGEEHEHTIPPGEPLTFPLPPGDIEVEPVSAGGS [r16_456_TrROS] | 0.315 ± 0.2 | -0.171 ± 0.2 |
| SAGGSAGGGSMDPKVETEEFEEPGREVKREKLPDGLVVTEYTEPDGPKSTVVTDPETGKVTVIGSAGGSAGG [r6_159_JUSTAS] | 0.653 ± 0.079 | 0.082 ± 0.15 |
| SAGGSAGGSAGAWTDPDGNPYEVKEATVASLGPENPIVLVRFSENGELRLVPLEQALADLSAGGSAGGSAGG [r17_517_TrMRF] | 0.558 ± 0.16 | -0.0575 ± 0.25 |
| SAGGMPATLEVRLPDGAGAVGVVRADDPDEIIEAARAIPADAPVVLTTDDPAYGRLFLEAGFDVVTLESAGG [r13_476_TrMRF] | 0.241 ± 0.066 | -0.138 ± 0.16 |
| SAGGSAGGSAPEPVVAKLVEVVTLPDGTPVLLFVVDHPDGPPELRLSTDALIEGDDLVDPSSAGGSAGGSAG [r3_261_TrMRF] | 0.404 ± 0.078 | -0.0131 ± 0.2 |
| SSMVVINFPDTKKATPETLRKEIEPVAAPGKPVLVTVYPPTGVVLKTATVEPDKVEEVDPSHPYIVEIVASA [r9_264_JUSTAS] | -0.377 ± 0.24 | -0.558 ± 0.16 |
| SAGGSAGGSAGGGMPVPPVEVVEVSEEVRPLPPSSDKTVRRVTRTLPDGSTLTFEEPPESAGGSAGGSAGGS [r10_945_JUSTAS] | 0.459 ± 0.04 | 0.064 ± 0.062 |
| SAGGSAGGSAGGSKVYVLVPVPNPEAIWEKVKALGPDAKVNSVEFLPGEGYLRVEVDAPSAGGSAGGSAGGS [r10_23_TrMRF] | -0.318 ± 0.49 | < -1 |
| SAMKIYVAPGPFTVTARPALPGGEEITITTPITPEQVADPAFLEALVQALEDAGVPATYSILPAGVALPSAG [r14_60_JUSTAS] | 0.597 ± 0.22 | – |
| SAGWVVIEIPKKEIPINPENVQIQEDNDRRYIFIPGEDADELKDQFPNKDVKIEPMPPEQMDRFMKQLSAGG [r19_271_TrROS] | -0.242 ± 0.55 | – |
| SAGGSAGGSAGPEEFEVLEMEAELNPETGEITVRFGSPEGEEITYTVTRPGELENLKLYASAGGSAGGSAGG [r11_711_TrMRF] | -0.136 ± 0.39 | – |
| SAGGMPPNATLSGKRVDFKPVPHPDGKTLLKIYYNGKPIEEIEVPPGEAEKLIAELPENTNIVTLPESAGGS [r8_41_JUSTAS] | -0.33 ± 0.58 | – |
| SAGGELLEDLNIKEIEVTEVKTYRNPENGMRMYEPTLTIKNPDGEKIKFTIEHMYDPGNPKPMIHIMSAGGS [r8_422_TrROS] | -0.212 ± 0.52 | – |
| SAGGSAGGSRTFRSPSGVRYTETSSVLETSPDPENGLWSTVTSSVVSVDPGPPAPPPPLSPALVSAGGSAGG [r6_939_JUSTAS] | – | < -1 |
| SAGGMRLADTLEEVENAAPGEIVALRAPDPLTPRPVVLVFRNPDGELGPLAYADADGNIHLPEELKEAGSAG [r5_490_TrMRF] | – | < -1 |

| Sequence | folding stability dG unfold [1] [kcal/mol] | folding stability dG unfold [2] [kcal/mol] |
| --- | --- | --- |
| SASLPEKLAKELLPEAKEIKILEVKTEPDPNSDRPVTTVKMEAELEGGKKKLTVTLSPGPLKIKVTPEPSAG [r14_397_JUSTAS] | – | < -1 |
| SAGGSAMNVKSKETVEELFSESPEKVSIKKTTTYTFPNSKTVEITYYKPDGKKIATKNLPLSEYSSSAGGSA [r15_755_JUSTAS] | -0.238 ± 0.59 | – |
| SMTLEEALANPEKLAEELAPPPTPAVDEEIDIVDPLTNTTRPARATVLLEPGRRVIVLPEDGAEYPVDPESA [r9_548_JUSTAS] | – | < -1 |
| SAGGSAGGSMVVTTTEFDLNGVKATLSIDDTGSATAKIPDPSYKEDVLKLIPSSFSLTSFDAESAGGSAGGS [r12_9_JUSTAS] | – | < -1 |
| SAGGSAGGSAEELAKKLAEELGVKVEVEEKDGKLVVKIEKKKAKPKPKKVEKKKYYSEEELKSAGGSAGGSA [r18_27_TrROS_Hall] | – | < -1 |
| SAGGSAGGSAMNPSEPYVTLTETVVEEAEEVVETFPGYGVYKYTETKLKTTVKVTTVPKSLLSAGGSAGGSA [r18_137_JUSTAS] | – | < -1 |
| SAGGPGKYRVIFYPKDTDKPIEADVPASHIKKFDPKNNFIEISAPPGPTLTIPDPDKVKKVIIEPIPSAGGS [r8_111_TrMRF] | – | < -1 |
| SAGGSAGGSANLEAAKKLFKDYPPGEEREIPIRVRTPGKPVPFRIKIYYPEDGNMKIDIEPYSAGGSAGGSA [r18_493_TrROS] | – | < -1 |
| SAGGGWEKIPITPNDKNQAKEIADEFADKLQQDPGIPKEVEIDVQPPPNNQYWIEVEYPGKKLEIPISAGGS [r16_356_TrROS] | – | < -1 |
| SAGMFYVLKTKRPTPSAPPEVLAADPNAEVETEYKLSPDTSEEEIKKIKEELKNKGWKEVKLVPISELKSAG [r5_60_JUSTAS] | – | < -1 |
| SAGGSAGGSSQEIQKRIQDRLRPRGPNRKPTPLEFTPKNGTITIKWKNPWHRKALKELPGIEPSAGGSAGGS [r12_623_TrROS] | – | < -1 |
| SAGGSAGGSYLVKIEWRHNGKPIEQTIPIDPGELPLEDIASNFPGYPWKIKVMDPNGEERPFTSAGGSAGGS [r12_540_TrROS] | -0.0033 ± 0.33 | – |
| SAGGSAGGSATPTPGDDYVYLTEESPDGRTIRYPETGSTIYIPADVPVNLKVNPVRGPDGVPESAGGSAGGS [r20_105_JUSTAS] | – | < -1 |
| SDDDFADSPEAKKNMENMKPVPPPPTITINVKGDDPEDALDDIREHFPGLDPSNIKSVETTDGTLTITFQSA [r9_723_TrROS] | – | < -1 |
| SADWYYWKNPKDGKEHTVDPEELSPEFAKKGIEPEEPVPPVINIDVDSAEQADELADEFPNKVQVQPNGSAG [r14_638_TrROS] | – | < -1 |
| SAGGSPVLVPLEREETDPARGTRTRTRAYRLPERDIALVEREEIPFAPDGTPLRRTSEEVVSLEELLESAGG [r13_807_JUSTAS] | – | < -1 |
| SAGGSAGGSFEVEPTPDHVSIRYYNPDGNPPVSATVDPPEGDIDFEHPDKKQEFPLKPGDTLISAGGSAGGS [r12_536_TrROS] | – | < -1 |
| SAGGSAGGSAEEISPEGVATRTLPDGRTVELTQDPAKGTVTTTVYTPSGTPVSSSTTPVNPSAGGSAGGSAG [r3_447_JUSTAS] | – | < -1 |
| SAGGSAGGSAGGSQNEVQIPFNNMPPQQARNIADEALDKNKDIENIEVERDDGMFKVKVSAGGSAGGSAGGS [r4_330_TrROS] | – | < -1 |
| SAGGSAGGSAAPVSEREVTLTGSGTPRVVPVRVLGEAASPSESIATEATLPDGRPLRLTLRESAGGSAGGSA [r18_54_JUSTAS] | – | < -1 |
| SAGGSAGGSAGGIYEKAVEFAKAKGGKDIPVKIKYPDGSVKTLNVDDLPDLKSENVEIVPSAGGSAGGSAGG [r7_863_TrMRF] | – | < -1 |
| SAGGSAGGAEAVEAAKAKLPPDEERTVVVPDPDDPSRVTTYTLTARGDEVEVPVTTEPVPPGLESAGGSAGG [r6_393_JUSTAS] | – | < -1 |
| SAGGIRMPPGQTQTFKLPGRKIEVHMGPNGPIYIEIENPGNGEPVEVPMRGDMTIDEMADAILDKLGSAGGS [r8_158_TrROS] | – | < -1 |
| SAGGSATITLKPGEKVEITVTITVTEYKYDKNGKLVEKKTYKITVKATFTVDEDGNIHVEIKIEIESAGGSA [r2_154_TrROS_Hall] | – | > 6 |
| SAGGESIVIPVKTLEEAKKVAEEIKEKFEKLGYKVEIFEEPETGRIIVKVTKKDKGTVSTTIITFPVPSAGG [r13_641_JUSTAS] | 4.21 ± 0.76 | – |
| SAGGSAGGSANFRILVDPPTNKIWIFDPPGYVYKIKVDPKEGKMKHEPVPIPPDDLPPNAFKSAGGSAGGSA [r18_59_TrROS] | – | < -1 |
